Patent US20210292423A1 (published 2021)

Each binder was assayed against T1, human CD3ε/δ-Fc fusion protein (soluble recombinant CD3ε/δ complex) (human, UniProt P04234 22-105) (assay: SPR Biacore, CODV-Fab on recombinant CD3ε/δ).
T1 construct: also called huCD3ε/δ; huCD3; not shown: hinge, CH2, CH3 of human IgG with tag
Experimental: (§1) Binding affinities of anti-CD3 binding Fabs or CODV-Fabs were measured by surface plasmon resonance (SPR) using a Biacore3000 instrument (GE Healthcare). Assay buffer was HBS-EP (BR-1001-88, GE Healthcare). Capture of CD3ε/δ-Fc fusion proteins was achieved using the human antibody capture kit (GE Healthcare). […] The CD3εδ-Fc fusions proteins were captured at 10 μl/min to approx. 70 RU to yield Rmax values of 30 RU. Binding kinetics with the anti-CD3 Fabs or CODV-Fabs was measured at 30 μl/min for 240 sec. and 600 sec. for association and dissociation phase, respectively. Twofold dilutions of Fabs from 3 to 400 nM in assay buffer were used. All Fab concentrations were run in duplicate together with duplicate buffer blanks for double referencing. Regeneration of the capture surface was performed with a 1 min injection of 3M MgCl2 solution at 30 μl/min. For data analysis the BIAevaluation software v.4.1 (GE Healthcare) was used. Data were fit globally using a 1:1 Langmuir model with mass transfer.

T1 sequence (chain, as listed by the source mutant, chain 1 of 2): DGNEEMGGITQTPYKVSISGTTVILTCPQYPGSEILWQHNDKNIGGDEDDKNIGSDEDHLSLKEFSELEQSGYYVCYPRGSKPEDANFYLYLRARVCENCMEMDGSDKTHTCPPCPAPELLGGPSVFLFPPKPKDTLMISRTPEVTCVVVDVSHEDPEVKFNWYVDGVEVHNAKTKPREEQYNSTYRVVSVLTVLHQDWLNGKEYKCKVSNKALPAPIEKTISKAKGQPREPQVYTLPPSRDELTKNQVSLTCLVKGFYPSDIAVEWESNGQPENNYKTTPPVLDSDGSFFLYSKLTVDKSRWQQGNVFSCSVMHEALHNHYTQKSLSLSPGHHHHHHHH
T1 sequence (P04234 22-105, stated change not applied, chain 2 of 2): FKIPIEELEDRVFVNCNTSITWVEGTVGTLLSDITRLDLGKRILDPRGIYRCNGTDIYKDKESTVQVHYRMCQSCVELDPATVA

| Kd | koff | kon | Binder |
| --- | --- | --- | --- |
| 58.7 nM | 0.00109 s⁻¹ | 18600 M⁻¹ s⁻¹ | CODV-Fab 7G3 × 20G6 with humanized 20G6 VL1D_VH1B (bispecific antibody) light: DIVMTQTPLSLSVTPGQPASISCKSSQSLVHNNGNTYLSWYLQKPGQSPQSLIYKVSNRFSGVPDRFSGSGSGTDFTLKISRVEAEDVGVYYCGQGTQYPFTFGSGTKVEIKGQPKAAPDFVMTQSPSSLTVTAGEKVTMSCKSSQSLLNSGNQKNYLTWYLQKPGQPPKLLIYWASTRESGVPDRFTGSGSGTDFTLTISSVQAEDLAVYYCQNDYSYPYTFGGGTKLEIKTKGPSRTVAAPSVFIFPPSDEQLKSGTASVVCLLNNFYPREAKVQWKVDNALQSGNSQESVTEQDSKDSTYSLSSTLTLSKADYEKHKVYACEVTHQGLSSPVTKSFNRGEC heavy: EVQLQQSGPELVKPGASVKMSCKASGYTFTDYYMKWVKQSHGKSLEWIGDIIPSNGATFYNQKFKGKATLTVDRSSSTAYMHLNSLTSEDSAVYYCTRSHLLRASWFAYWGQGTLVTVSASQVQLVESGGGVVQPGRSLRLSCAASGFTFTKAWMHWVRQAPGKQLEWVAQIKDKSNSYATYYADSVKGRFTISRDNSKNTLYLQMNSLRAEDTAVYYCRGVYYALSPFDYWGQGTLVTVSSRTASTKGPSVFPLAPSSKSTSGGTAALGCLVKDYFPEPVTVSWNSGALTSGVHTFPAVLQSSGLYSLSSVVTVPSSSLGTQTYICNVNHKPSNTKVDKKVEPKSCDKTHTHHHHHH |
| 152 nM | 0.00434 s⁻¹ | 28600 M⁻¹ s⁻¹ | CODV-Fab 7G3 × 20G6 with humanized 20G6 VL1A_VH1A (bispecific antibody) light: DIVMTQTPLSLSVTPGQPASISCKSSQSLVHNNGNTYLSWYLQKPGQSPQLLIYKVSNRFSGVPDRFSGSGSGTDFTLKISRVEAEDVGVYYCGQGTQYPFTFGQGTKLEIKGQPKAAPDFVMTQSPSSLTVTAGEKVTMSCKSSQSLLNSGNQKNYLTWYLQKPGQPPKLLIYWASTRESGVPDRFTGSGSGTDFTLTISSVQAEDLAVYYCQNDYSYPYTFGGGTKLEIKTKGPSRTVAAPSVFIFPPSDEQLKSGTASVVCLLNNFYPREAKVQWKVDNALQSGNSQESVTEQDSKDSTYSLSSTLTLSKADYEKHKVYACEVTHQGLSSPVTKSFNRGEC heavy: EVQLQQSGPELVKPGASVKMSCKASGYTFTDYYMKWVKQSHGKSLEWIGDIIPSNGATFYNQKFKGKATLTVDRSSSTAYMHLNSLTSEDSAVYYCTRSHLLRASWFAYWGQGTLVTVSASQVQLVESGGGVVQPGRSLRLSCAASGFTFTKAWMHWVRQAPGKGLEWVAQIKDKSNSYATYYADSVKGRFTISRDNSKNTLYLQMNSLRAEDTAVYYCRGVYYALSPFDYWGQGTLVTVSSRTASTKGPSVFPLAPSSKSTSGGTAALGCLVKDYFPEPVTVSWNSGALTSGVHTFPAVLQSSGLYSLSSVVTVPSSSLGTQTYICNVNHKPSNTKVDKKVEPKSCDKTHTHHHHHH |
| 138 nM | 0.00414 s⁻¹ | 29900 M⁻¹ s⁻¹ | CODV-Fab 7G3 × 20G6 with humanized 20G6 VL1B_VH1A (bispecific antibody) light: DIVMTQTPLSLSVTPGQPASISCKSSQSLVHNNGNTYLSWYLQKPGQSPQLLIYKVSNRFSGVPDRFSGSGSGTDFTLKISRVEAEDVGVYYCGQGTQYPFTFGGGTKVEIKGQPKAAPDFVMTQSPSSLTVTAGEKVTMSCKSSQSLLNSGNQKNYLTWYLQKPGQPPKLLIYWASTRESGVPDRFTGSGSGTDFTLTISSVQAEDLAVYYCQNDYSYPYTFGGGTKLEIKTKGPSRTVAAPSVFIFPPSDEQLKSGTASVVCLLNNFYPREAKVQWKVDNALQSGNSQESVTEQDSKDSTYSLSSTLTLSKADYEKHKVYACEVTHQGLSSPVTKSFNRGEC heavy: EVQLQQSGPELVKPGASVKMSCKASGYTFTDYYMKWVKQSHGKSLEWIGDIIPSNGATFYNQKFKGKATLTVDRSSSTAYMHLNSLTSEDSAVYYCTRSHLLRASWFAYWGQGTLVTVSASQVQLVESGGGVVQPGRSLRLSCAASGFTFTKAWMHWVRQAPGKGLEWVAQIKDKSNSYATYYADSVKGRFTISRDNSKNTLYLQMNSLRAEDTAVYYCRGVYYALSPFDYWGQGTLVTVSSRTASTKGPSVFPLAPSSKSTSGGTAALGCLVKDYFPEPVTVSWNSGALTSGVHTFPAVLQSSGLYSLSSVVTVPSSSLGTQTYICNVNHKPSNTKVDKKVEPKSCDKTHTHHHHHH |

The binders below were run against T1, human CD3ε/δ-Fc fusion protein (soluble …) (assay: SPR Biacore, Fab).
Experimental: as §1

| Binder | Kd | koff | kon |
| --- | --- | --- | --- |
| humanized 4B4 Fab 4B4_6 (VL1a, VH1A) (Fab, V domains shown, expressed as Fab-fragment) VH: QVQLVETGGGLVKPGQSLKLTCATSGFTFSNAWMHWVRQSPEKGLEWVAQIKARSNNYATYYAESVKGRFTISRDDSKSTIYLQMNSLTPEDTAIYYCRGTYYASKPFDYWGQGVMVTVSS VL: DVVMTQTPVSLSVSVGGRVSISCRSSQSLVHDNGNTYLSWSLQKPGKSPKVLIYKVSNRFSGVSSRFTGSGSGTDFTLKISSVQPDDLGVYYCGQGTQYPFTFGSGTKLEIK | 1.24 nM | 0.00185 s⁻¹ | 1.5e+06 M⁻¹ s⁻¹ |
| humanized 4B4 Fab 4B4_10 (VL1_CM2, VH6_BM2) (Fab, V domains shown) VH: QVQLVESGGRVVQPGRSLRLTCAASGFTFSNAWMHWVRQAPGKQLEWVAQIKARSNNYATYYAESVKGRFTISRDDSKSTIYLQMNSLRAEDTAVYYCRGTYYASKPFDYWGQGTTVTVSS VL: DVVMTQSPLSLSVTLGQPVSISCRSSQSLVHDNGNTYLSWSLQRPGQSPRVLIYKVSNRFSGVPDRFSGSGSGTDFTLKISRVEAEDVGVYYCGQGTQYPFTFGSGTKLEIK | 9.19 nM | 0.00399 s⁻¹ | 434000 M⁻¹ s⁻¹ |

The remaining lines, values ahead:

| Kd | koff | kon | Binder |
| --- | --- | --- | --- |
| 33.5 nM | 0.00171 s⁻¹ | 50900 M⁻¹ s⁻¹ | humanized 4B4 Fab 4B4_20 (VL2F, VH6C) (Fab, V domains shown, expressed as Fab-fragment) VH: QVQLVESGGGVVQPGRSLRLSCAASGFTFSNAWMHWVRQAPGKQLEWVAQIKARSNNYATYYADSVKGRFTISRDDSKSTLYLQMNSLRAEDTAVYYCRGTYYASKPFDYWGQGTLVTVSS VL: DIVMTQTPLSLSVTPGQPASISCKSSQSLVHDNANTYLSWYLQKPGQSPQSLIYKVSNRFSGVPDRFSGSGSGTDFTLKISRVEAEDVGVYYCGQGTQYPFTFGSGTKVEIK |
| 18.2 nM | 0.00423 s⁻¹ | 233000 M⁻¹ s⁻¹ | humanized 4B4 Fab 4B4_5 (VL2C, VH6D) (Fab, V domains shown, expressed as Fab-fragment) VH: QVQLVESGGGVVQPGRSLRLSCATSGFTFSNAWMHWVRQAPGKQLEWVAQIKARSNNYATYYADSVKGRFTISRDDSKSTIYLQMNSLRAEDTAVYYCRGTYYASKPFDYWGQGTLVTVSS VL: DIVMTQTPLSLSVTPGQPASISCKSSQSLVHDNGNTYLSWSLQKPGQSPQVLIYKVSNRFSGVPDRFSGSGSGTDFTLKISRVEAEDVGVYYCGQGTQYPFTFGSGTKLEIK |
| 13.4 nM | 0.00291 s⁻¹ | 218000 M⁻¹ s⁻¹ | humanized 4B4 Fab 4B4_9 (VL2B, VH2A) (Fab, V domains shown, expressed as Fab-fragment) VH: EVQLVETGGGLVQPGGSLKLTCATSGFTFSNAWMHWVRQSPEKGLEWVAQIKARSNNYATYYAESVKGRFTISRDDSKSTIYLQMNSLRAEDTAIYYCRGTYYASKPFDYWGQGVMVTVSS VL: DVVMTQTPVSLSVSPGGPVSISCRSSQSLVHDNANTYLSWSLQKPGQSPQVLIYKVSNRFSGVSDRFTGSGSGTDFTLKISRVEPDDLGVYYCGQGTQYPFTFGSGTKLEIK |
| 8.91 nM | 0.00276 s⁻¹ | 310000 M⁻¹ s⁻¹ | humanized 4B4 Fab 4B4_17 (VL2A, VH2B) (Fab, V domains shown, expressed as Fab-fragment) VH: EVQLVETGGGLVQPGGSLKLTCATSGFTFSNAWMHWVRQSPEKGLEWVAQIKARSNNYATYYADSVKGRFTISRDDSKSTIYLQMNSLRAEDTAIYYCRGTYYASKPFDYWGQGVMVTVSS VL: DVVMTQTPVSLSVSPGGPVSISCRSSQSLVHDNGNTYLSWSLQKPGQSPQVLIYKVSNRFSGVSDRFTGSGSGTDFTLKISRVEPDDLGVYYCGQGTQYPFTFGSGTKLEIK |
| 8.1 nM | 0.00248 s⁻¹ | 306000 M⁻¹ s⁻¹ | humanized 4B4 Fab 4B4_7 (VL1b, VH1A) (Fab, V domains shown, expressed as Fab-fragment) VH: QVQLVETGGGLVKPGQSLKLTCATSGFTFSNAWMHWVRQSPEKGLEWVAQIKARSNNYATYYAESVKGRFTISRDDSKSTIYLQMNSLTPEDTAIYYCRGTYYASKPFDYWGQGVMVTVSS VL: DVVMTQTPVSLSVSVGGRVSISCRSSQSLVHDNANTYLSWSLQKPGKSPKVLIYKVSNRFSGVSSRFTGSGSGTDFTLKISSVQPDDLGVYYCGQGTQYPFTFGSGTKLEIK |
| 7.48 nM | 0.00214 s⁻¹ | 286000 M⁻¹ s⁻¹ | humanized 4B4 Fab 4B4_2 (VL1b, VH1B) (Fab, V domains shown, expressed as Fab-fragment) VH: QVQLVETGGGLVKPGQSLKLTCATSGFTFSNAWMHWVRQSPEKGLEWVAQIKARSNNYATYYAVSVKGRFTISRDDSKSTIYLQMNSLTPEDTAIYYCRGTYYASKPFDYWGQGVMVTVSS VL: DVVMTQTPVSLSVSVGGRVSISCRSSQSLVHDNANTYLSWSLQKPGKSPKVLIYKVSNRFSGVSSRFTGSGSGTDFTLKISSVQPDDLGVYYCGQGTQYPFTFGSGTKLEIK |
| 2.77 nM | 0.00174 s⁻¹ | 628000 M⁻¹ s⁻¹ | humanized 4B4 Fab 4B4_1 (VL1a, VH1B) (Fab, V domains shown, expressed as Fab-fragment) VH: QVQLVETGGGLVKPGQSLKLTCATSGFTFSNAWMHWVRQSPEKGLEWVAQIKARSNNYATYYAVSVKGRFTISRDDSKSTIYLQMNSLTPEDTAIYYCRGTYYASKPFDYWGQGVMVTVSS VL: DVVMTQTPVSLSVSVGGRVSISCRSSQSLVHDNGNTYLSWSLQKPGKSPKVLIYKVSNRFSGVSSRFTGSGSGTDFTLKISSVQPDDLGVYYCGQGTQYPFTFGSGTKLEIK |
